± gives the standard deviation of the averaged measurements.

Data set [1] relates to Saccharomyces cerevisiae. As to the kind of experiment: protein stability index of tFT-peptide fusion (C-terminal peptide) (PSI (0-1 scale)); higher = more stable (slower turnover). The procedure:
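MPS profiling in S. cerevisiae of the tFT-X12 degron library: putative degron peptides plus stable controls, 12 aa, fused to the C-terminus of a sfGFP-mCherry timer. Cells are FACS-sorted into 8 mCherry/sfGFP bins and deep-sequenced. PSI runs from 0 (unstable) to 1 (stable). Backgrounds are wild type, das1Δ and doa10Δ at 30 °C, and wild type, das1Δ, cdc34-1 and cdc53-1 at 37 °C; 2-3 technical replicates each.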

In data set [2] the test system is Saccharomyces cerevisiae. The data set is described as above. The conditions noted are these: genetic background: wild type; temperature: 30 C.
Where [3] appears, read: genetic background: cdc34-1, temperature: 37 C.
Setting [4] is: genetic background: cdc53-1, temperature: 37 C.
[5] abbreviates: genetic background: das1 deletion, temperature: 30 C.
The mark [6] stands for this setting: genetic background: das1 deletion, temperature: 37 C.
Setting [7] is: genetic background: doa10 deletion, temperature: 30 C.
Setting [8] is: genetic background: wild type, temperature: 30 C.
Where [9] appears, read: genetic background: wild type, temperature: 37 C.
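Also: PSI is a weighted mean of sequencing reads over stability bins, variants kept only with over 10 reads, mCherry proximal and sfGFP distal, peptide attached via GGGS linker.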

Turning to VSFLVSIFVSGV, the protein stability index in the data set on Saccharomyces cerevisiae [1] (setting [3]) amounted to 0.189 ± 0.025; in the data set with Saccharomyces cerevisiae [1] (setting [4]) it was 0.246 ± 0.036; in the data set on Saccharomyces cerevisiae [1] (setting [5]), 0.216 ± 0.029; in the data set with Saccharomyces cerevisiae [1] (setting [6]), 0.372 ± 0.0078; in the data set with Saccharomyces cerevisiae [1] (setting [7]), 0.2 ± 0.025; in the data set on Saccharomyces cerevisiae [1] (setting [8]), 0.194 ± 0.048. Also, the protein stability index in the data set with Saccharomyces cerevisiae [1] (setting [9]) was found to be 0.332 ± 0.015; in the data set with Saccharomyces cerevisiae [2], 0.303 ± 0.039.
As for VSLLSLGYVFVY, the protein stability index came out at 0.286 ± 0.05 in the data set with Saccharomyces cerevisiae [1] (setting [3]); 0.27 ± 0.03 in the data set with Saccharomyces cerevisiae [1] (setting [4]); 0.212 ± 0.038 with Saccharomyces cerevisiae [1] (setting [5]); 0.3467 ± 0.00073 in the data set on Saccharomyces cerevisiae [1] (setting [6]); 0.184 ± 0.0098 in the data set with Saccharomyces cerevisiae [1] (setting [7]); 0.216 ± 0.033 in the data set on Saccharomyces cerevisiae [1] (setting [8]). In addition, the protein stability index in the data set with Saccharomyces cerevisiae [1] (setting [9]) is 0.319 ± 0.0037; in the data set with Saccharomyces cerevisiae [2], 0.307 ± 0.019.
Regarding VSLLVFVVSSRV, the protein stability index in the data set with Saccharomyces cerevisiae [1] (setting [3]) was determined as 0.345 ± 0.034; in the data set on Saccharomyces cerevisiae [1] (setting [4]) it was 0.418 ± 0.0047; with Saccharomyces cerevisiae [1] (setting [5]), 0.262 ± 0.031; in the data set with Saccharomyces cerevisiae [1] (setting [6]) it was 0.476 ± 0.016; with Saccharomyces cerevisiae [1] (setting [7]), 0.223 ± 0.0068; in the data set with Saccharomyces cerevisiae [1] (setting [8]), 0.255 ± 0.022. In addition, the values for the protein stability index in the data set on Saccharomyces cerevisiae [1] (setting [9]) and in the data set with Saccharomyces cerevisiae [2] were 0.444 ± 0.013 and 0.3816 ± 0.0022, respectively.
With VSPPPLSPPLSR, the protein stability index stood at 0.677 ± 0.014 in the data set with Saccharomyces cerevisiae [1] (setting [3]); 0.7238 ± 0.0031 in the data set with Saccharomyces cerevisiae [1] (setting [4]); 0.6712 ± 0.0055 in the data set on Saccharomyces cerevisiae [1] (setting [5]); 0.709 ± 0.012 in the data set with Saccharomyces cerevisiae [1] (setting [6]); 0.686 ± 0.0078 with Saccharomyces cerevisiae [1] (setting [7]); 0.673 ± 0.0092 in the data set on Saccharomyces cerevisiae [1] (setting [8]). Further, the protein stability index in the data set with Saccharomyces cerevisiae [1] (setting [9]) is 0.688 ± 0.014; with Saccharomyces cerevisiae [2], 0.701 ± 0.0022.
VTMTPSLCFSYS: the protein stability index in the data set on Saccharomyces cerevisiae [1] (setting [3]) stood at 0.688 ± 0.017; in the data set with Saccharomyces cerevisiae [1] (setting [4]), 0.684 ± 0.023; in the data set with Saccharomyces cerevisiae [1] (setting [5]), 0.388 ± 0.029; in the data set on Saccharomyces cerevisiae [1] (setting [6]), 0.668 ± 0.013; with Saccharomyces cerevisiae [1] (setting [7]), 0.364 ± 0.0098; in the data set on Saccharomyces cerevisiae [1] (setting [8]), 0.396 ± 0.01. The protein stability index came out at 0.632 ± 0.016 in the data set on Saccharomyces cerevisiae [1] (setting [9]) and 0.464 ± 0.018 in the data set on Saccharomyces cerevisiae [2].
On to VTRLLLSRIDCY, for which the protein stability index in the data set with Saccharomyces cerevisiae [1] (setting [3]) stood at 0.437 ± 0.018; with Saccharomyces cerevisiae [1] (setting [4]), 0.445 ± 0.0057; with Saccharomyces cerevisiae [1] (setting [5]) it was 0.376 ± 0.028; with Saccharomyces cerevisiae [1] (setting [6]), 0.501 ± 0.016; in the data set with Saccharomyces cerevisiae [1] (setting [7]), 0.346 ± 0.011; in the data set with Saccharomyces cerevisiae [1] (setting [8]) it was 0.367 ± 0.025. Also, the protein stability index in the data set with Saccharomyces cerevisiae [1] (setting [9]) was found to be 0.468 ± 0.022; with Saccharomyces cerevisiae [2], 0.445 ± 0.11.
Take VVFLFVEAVVGV: the protein stability index in the data set on Saccharomyces cerevisiae [1] (setting [3]) turned out to be 0.0536 ± 0.018; in the data set with Saccharomyces cerevisiae [1] (setting [4]) it was 0.0519 ± 0.021; with Saccharomyces cerevisiae [1] (setting [5]) it was 0.0387 ± 0.014; in the data set on Saccharomyces cerevisiae [1] (setting [6]) it was 0.0974 ± 0.015; in the data set on Saccharomyces cerevisiae [1] (setting [7]), 0.0288 ± 0.0048; in the data set on Saccharomyces cerevisiae [1] (setting [8]) it was 0.0238 ± 0.0054. Also, the protein stability index in the data set on Saccharomyces cerevisiae [1] (setting [9]) stood at 0.0933 ± 0.022; in the data set on Saccharomyces cerevisiae [2], 0.0707 ± 0.0075.
For VVFVVGAPPVLC, the protein stability index with Saccharomyces cerevisiae [1] (setting [3]) turned out to be 0.476 ± 0.018; with Saccharomyces cerevisiae [1] (setting [4]) it was 0.481 ± 0.036; in the data set on Saccharomyces cerevisiae [1] (setting [5]), 0.359 ± 0.024; in the data set with Saccharomyces cerevisiae [1] (setting [6]), 0.532 ± 0.013; in the data set with Saccharomyces cerevisiae [1] (setting [7]), 0.323 ± 0.016; in the data set on Saccharomyces cerevisiae [1] (setting [8]), 0.365 ± 0.0082. The results for the protein stability index with Saccharomyces cerevisiae [1] (setting [9]) and in the data set on Saccharomyces cerevisiae [2] were 0.5068 ± 0.0019 and 0.4834 ± 0.0027, respectively.
For VVGVVVCWGCGW, the protein stability index in the data set with Saccharomyces cerevisiae [1] (setting [3]) stood at 0.493 ± 0.02; in the data set on Saccharomyces cerevisiae [1] (setting [4]) it was 0.555 ± 0.057; in the data set on Saccharomyces cerevisiae [1] (setting [5]), 0.393 ± 0.024; in the data set on Saccharomyces cerevisiae [1] (setting [6]), 0.587 ± 0.0062; in the data set on Saccharomyces cerevisiae [1] (setting [7]), 0.369 ± 0.021; in the data set with Saccharomyces cerevisiae [1] (setting [8]), 0.397 ± 0.018. Moreover, the values for the protein stability index in the data set with Saccharomyces cerevisiae [1] (setting [9]) and with Saccharomyces cerevisiae [2] were 0.535 ± 0.0068 and 0.45 ± 0.023, respectively.

These data come from the supplement of paper PMC10724198.
